From the supplement of paper PMC7877785
± gives the uncertainty stated by the source.

Test: self-splicing fitness, log relative to wild type (ln ratio); higher = more splicing; Tetrahymena group I intron in knt gene, E. coli kanamycin selection, DiMSum; sequences stand for … in CUCUCU…GGAGGGAAAAGUUAUCAGGCAUGCACCUGGUAGCUAGUCUUUAAACCAAUAGAUUGCAUCGGUUUAAAAGGCAAGACCGUCAAAUUGCGGGAAAGGGGUCAACAGCCGUUCAGUACCAAGUCUCAGGGGAAACUUUGAGAUGGCCUUGCAAAGGGUAUGGUAAUAAGCUGACGGACAUGGUCCUAACCACGCAGCCAAGUCCUAAGUCAACAGAUCUUCUGUUGAUAUGGAUGCAGUUCACAGACUAAAUGUCGGUCGGGGAAGAUGUAUUCUUCUCAUAAGAUAUAGUCGGACCUCUCCUUAAUGGGAGCUAGCGGAUGAAGUGAUGCAACACUGGAGCCGCUGGGAACUAAUUUGUAUGCGAAAGUAUAUUGAUUAGUUUUGGAGUACUCGUGGUCG
In short: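 Colonies from six replicate transformations of E. coli BL21(DE3) were pooled and amplicon-sequenced on an Illumina HiSeq 2500. The library placed an intron with all eight P1ex-region nucleotides randomised inside the knt kanamycin-resistance gene on pET-22b(+), and cells grew overnight at 37°C or 30°C on LB agar with or without 25 μg/mL kanamycin (plus 100 μg/mL carbenicillin, 50 μM IPTG, 0.2% rhamnose). Fitness is the DiMSum error-weighted combination of wild-type-normalised replicate fold changes, kanamycin versus none.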

Sequence | self-splicing fitness (ln) (30 °C) | self-splicing fitness (ln) (37 °C)
CCCCAGCAAUAUUACGAGAC | -3.9 ± 0.18 | -2.37 ± 0.21
CCCCAGCAAUAUUACGAGAG | -3.91 ± 0.23 | -2.05 ± 0.17
CCCCAGCAAUAUUACGAGAU | -3.78 ± 0.17 | -2.3 ± 0.2
CCCCAGCAAUAUUACGAGCG | -4.16 ± 0.24 | -2.62 ± 0.23
CCCCAGCAAUAUUACGAUAU | -3.52 ± 0.2 | -1.58 ± 0.21
CCCCAGCAAUAUUACGAUUA | -3.4 ± 0.2 | -2.87 ± 0.22
CCCCAGCAAUAUUACGCACG | -2.64 ± 0.11 | -2.2 ± 0.17
CCCCAGCAAUAUUACGCGCC | -3.19 ± 0.19 | -3.17 ± 0.47
CCCCAGCAAUAUUACGCGCU | -3.31 ± 0.12 | -2.45 ± 0.21
CCCCAGCAAUAUUACGCGGG | -4.19 ± 0.18 | -3.1 ± 0.23
CCCCAGCAAUAUUACGCUAA | -3.55 ± 0.18 | -3.2 ± 0.21
CCCCAGCAAUAUUACGCUGA | -3.97 ± 0.2 | -2.42 ± 0.17
CCCCAGCAAUAUUACGGAAA | -4.13 ± 0.34 | -1.64 ± 0.16
CCCCAGCAAUAUUACGGAGC | -3.08 ± 0.15 | -2.83 ± 0.23
CCCCAGCAAUAUUACGGAUG | -1.96 ± 0.064 | -1.08 ± 0.067
CCCCAGCAAUAUUACGGCGC | -3.41 ± 0.17 | -2.98 ± 0.24
CCCCAGCAAUAUUACGGCUC | -3.43 ± 0.18 | -2.75 ± 0.33
CCCCAGCAAUAUUACGGGAA | -2.29 ± 0.096 | -1.64 ± 0.088
CCCCAGCAAUAUUACGGGAU | -3.28 ± 0.12 | -2.48 ± 0.14
CCCCAGCAAUAUUACGUAGG | -3.78 ± 0.12 | -2.68 ± 0.15
CCCCAGCAAUAUUACGUGAC | -2.7 ± 0.11 | -3.24 ± 0.21
CCCCAGCAAUAUUACGUGAU | -3.64 ± 0.11 | -2.96 ± 0.18
CCCCAGCAAUAUUACGUGGU | -2.64 ± 0.1 | -2.98 ± 0.2
CCCGAGCAAUAUUACGACCC |  | -0.219 ± 0.47
CCCGAGCAAUAUUACGAGAA | -3.69 ± 0.43 | -2.1 ± 0.34

Sequence | self-splicing fitness (ln) (30 °C) | self-splicing fitness (ln) (37 °C)
CCCGAGCAAUAUUACGAGCU | -3.75 ± 0.17 | -2.69 ± 0.21
CCCGAGCAAUAUUACGAUCU | -3.09 ± 0.19 | -2.68 ± 0.23
CCCGAGCAAUAUUACGCACA | -2.87 ± 0.27 | -1.68 ± 0.32
CCCGAGCAAUAUUACGCCAU | -3.53 ± 0.35 | -2.44 ± 0.33
CCCGAGCAAUAUUACGCCGU | -3.61 ± 0.32 | -2.69 ± 0.32
CCCGAGCAAUAUUACGCGAA |  | -3.31 ± 0.21
CCCGAGCAAUAUUACGCGAG | -5.08 ± 0.41 | -2.46 ± 0.18
CCCGAGCAAUAUUACGCGGG | -3.54 ± 0.17 | -3.45 ± 0.3
CCCGAGCAAUAUUACGGAGA | -3.28 ± 0.14 | -1.36 ± 0.11
CCCGAGCAAUAUUACGGCGU | -2.83 ± 0.13 | -1.71 ± 0.13
CCCGAGCAAUAUUACGGGGA | -3.49 ± 0.21 | -2.14 ± 0.11
CCCGAGCAAUAUUACGGGUG | -3.42 ± 0.18 | -1.7 ± 0.12
CCCGAGCAAUAUUACGGUUU | -3.14 ± 0.11 | -1.96 ± 0.12
CCCGAGCAAUAUUACGUAAA | -3.27 ± 0.15 | -2.94 ± 0.2
CCCGAGCAAUAUUACGUAGA | -3.94 ± 0.3 | -2.92 ± 0.24
CCCGAGCAAUAUUACGUGCU | -3.55 ± 0.21 | -1.32 ± 0.16
CCCGAGCAAUAUUACGUGGC |  | -3.58 ± 0.25
CCCGAGCAAUAUUACGUGGG | -3.97 ± 0.19 | -2.79 ± 0.19
CCCUAGCAAUAUUACGAAGA | -2.34 ± 0.21 | -2.67 ± 0.26
CCCUAGCAAUAUUACGAGAA | -2.85 ± 0.45 | -2.67 ± 0.44
CCCUAGCAAUAUUACGAGAC | -3.85 ± 0.22 | -2.69 ± 0.34
CCCUAGCAAUAUUACGAGCA | -2.64 ± 0.21 | -3.08 ± 0.18
CCCUAGCAAUAUUACGCACA | -2.5 ± 0.14 | -1.97 ± 0.15
CCCUAGCAAUAUUACGCCCC | -3.88 ± 0.37 | -3.05 ± 0.47
